Measurements as given in PMC1636354 (Nucleic Acids Research, 2006).
Each block holds one binder with its values, some of them ahead of it.

Key:
Assay in all cases: pull-down
[1] = biological target: T1, human Rad54B protein (untagged, purified) (human, UniProt Q9Y620 1-910)
T1 sequence: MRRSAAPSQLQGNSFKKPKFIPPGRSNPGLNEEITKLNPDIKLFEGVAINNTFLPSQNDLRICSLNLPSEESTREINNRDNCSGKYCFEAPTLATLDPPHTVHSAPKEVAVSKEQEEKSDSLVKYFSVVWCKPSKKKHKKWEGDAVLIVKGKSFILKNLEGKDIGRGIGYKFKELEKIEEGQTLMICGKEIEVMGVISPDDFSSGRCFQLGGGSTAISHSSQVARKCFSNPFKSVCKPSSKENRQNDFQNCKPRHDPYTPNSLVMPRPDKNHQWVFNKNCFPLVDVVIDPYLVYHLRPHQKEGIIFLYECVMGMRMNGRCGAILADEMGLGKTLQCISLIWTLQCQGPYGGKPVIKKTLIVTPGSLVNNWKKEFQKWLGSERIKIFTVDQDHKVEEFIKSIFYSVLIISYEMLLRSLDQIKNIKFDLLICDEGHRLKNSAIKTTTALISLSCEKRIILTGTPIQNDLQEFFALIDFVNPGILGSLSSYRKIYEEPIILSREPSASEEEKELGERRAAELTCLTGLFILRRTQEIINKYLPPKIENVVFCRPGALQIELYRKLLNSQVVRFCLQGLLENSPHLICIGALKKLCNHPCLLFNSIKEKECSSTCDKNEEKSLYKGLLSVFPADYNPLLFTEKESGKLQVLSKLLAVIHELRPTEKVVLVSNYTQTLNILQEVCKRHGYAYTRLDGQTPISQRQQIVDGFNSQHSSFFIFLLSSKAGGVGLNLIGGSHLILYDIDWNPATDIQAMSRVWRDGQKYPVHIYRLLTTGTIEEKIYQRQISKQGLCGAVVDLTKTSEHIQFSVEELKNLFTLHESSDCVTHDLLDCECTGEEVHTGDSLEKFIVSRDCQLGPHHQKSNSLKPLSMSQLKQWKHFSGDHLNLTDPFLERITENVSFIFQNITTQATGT

[2] = biological target: the molecule itself
[3] = biological target: T2, Dmc1 (human, UniProt Q14565 1-340)
T2 sequence: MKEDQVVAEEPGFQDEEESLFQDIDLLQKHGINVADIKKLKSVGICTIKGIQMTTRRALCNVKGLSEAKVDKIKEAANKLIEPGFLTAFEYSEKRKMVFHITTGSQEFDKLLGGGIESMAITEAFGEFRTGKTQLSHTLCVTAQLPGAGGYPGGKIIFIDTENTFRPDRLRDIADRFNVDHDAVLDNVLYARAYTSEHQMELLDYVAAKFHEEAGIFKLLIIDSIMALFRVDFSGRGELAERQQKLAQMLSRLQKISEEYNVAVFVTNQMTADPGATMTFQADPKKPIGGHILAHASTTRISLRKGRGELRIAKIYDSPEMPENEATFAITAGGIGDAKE

binding result [1]: binds
B1: human Rad51 protein (natural protein)
chain: MAMQMQLEANADTSVEEESFGPQPISRLEQCGINANDVKKLEEAGFHTVEAVAYAPKKELINIKGISEAKADKILAEAAKLVPMGFTTATEFHQRRSEIIQITTGSKELDKLLQGGIETGSITEMFGEFRTGKTQICHTLAVTCQLPIDRGGGEGKAMYIDTEGTFRPERLLAVAERYGLSGSDVLDNVAYARAFNTDHQTQLLYQASAMMVESRYALLIVDSATALYRTDYSGRGELSARQMHLARFLRMLLRLADEFGVAVVITNQVVAQVDGAAMFAADPKKPIGGNIIAHASTTRLYLRKGRGETRICKIYDSPCLPEAEAMFAINADGVGDAKD

binding result [1]: binds
B2: human Dmc1 protein (purified) (natural protein)
chain: T2 sequence
binding result [2]: binds

B3: SAT-120 (ssDNA)
DNA: ATTTCTTCATTTCATGCTAGACAGAAGAATTCTCAGTAACTTCTTTGTGCTGTGTGTATTCAACTCACAGAGTGGAACGTCCCTTTGCACAGAGCAGATTTGAAACACTCTTTTTGTAGT
binding result [3]: binds

binding result [1]: binds
B4: Dmc1 mutant lacking 81 amino acid residues from the N-terminus (Dmc1 82-340) (domain or fragment)
chain: EPGFLTAFEYSEKRKMVFHITTGSQEFDKLLGGGIESMAITEAFGEFRTGKTQLSHTLCVTAQLPGAGGYPGGKIIFIDTENTFRPDRLRDIADRFNVDHDAVLDNVLYARAYTSEHQMELLDYVAAKFHEEAGIFKLLIIDSIMALFRVDFSGRGELAERQQKLAQMLSRLQKISEEYNVAVFVTNQMTADPGATMTFQADPKKPIGGHILAHASTTRISLRKGRGELRIAKIYDSPEMPENEATFAITAGGIGDAKE
binding result [2]: binds
